In patent publication US10077436B2, “Beta-glucosidase enzymes for increased biomass saccharification” (Edeniq, Inc., priority 2013, dated 2018):

Columns and labels:
Format in all cases: biochemical, Aspergillus niger
[1] = substrate: OC[C@H]1O[C@@H](O[C@H]2[C@H](O)[C@@H](O)C(O)O[C@@H]2CO)[C@H](O)[C@@H](O)[C@@H]1O; experiment: BG kinetics, cellobiose hydrolysis assay (HPLC) with glucose as competitive inhibitor, yEdQ885-BG; conditions: other: cellobiose substrate, pH 4.8, 50° C.
Source text: (§1) The beta-glucosidase (BG) gene from Aspergillus niger (Accession #CAB75696.1) was integrated into the TR3 yeast background at the T4U3 genomic site.
(§2) High resolution enzyme assays and kinetic testing comparing the beta-glucosidases described herein and commercial enzyme preparations were pursued to more clearly quantify differences in mutant BG enzymes compared to the wild type BG enzyme. Based on data presented herein, BG mutant YEdQ885 was selected for further analysis and compared to the BG activity present in commercial preparations of SP188 (Novozymes) and Accellerase® BG (DuPont) as well as wild type BG.
(§3) The kinetic properties of beta glucosidase are important for cellulosic hydrolysis, since in commercial situations a wide range of substrate concentrations and different product inhibition conditions will be encountered. In this example, a Michaelis-Menten kinetics model was used to describe BG kinetics. To determine these kinetic properties, BG activity assays using standard substrates pNPG and cellobiose were employed. yEdQ745-BG (wild type) and yEdQ885-BG (improved), were compared with two commercial BGs, A-BG (Accellerase®) BG from Dupont) and S-BG (Novozymes SP188 from Sigma).
(§4) BG activity assay using cellobiose is the other standard assay to measure BG or cellobiase activity, which utilizes hydrolysis of cellobiose by cellobiase into two molecules of glucose, the last step of enzymatic hydrolysis of cellulose. One cellobiase unit (commonly termed as CBU) is defined as the amount of enzyme that converts […] of cellobiose or produces 2 μmol of glucose per min. Briefly, to determine BG activity, 25 μL of diluted enzyme in 50 mM citrate buffer (pH 4.8) equilibrated to 50° C. was mixed with 25 μL cellobiose (or cellobiose/glucose mixture for the kinetic study) to start the reaction. The mixture was incubated at 50° C. for 10 min, and the reaction was terminated by incubating the mixture at 99° C. for 5 min. Different methods are available to measure the glucose produced in the assays. For the kinetic study, HPLC was used.
To determine kinetic properties using cellobiose substrate, duplicate assays with cellobiose concentrations ranging from 0.47 to 15 mM and glucose concentrations of 0, 0.9, 4.5, 6.75, and 8.1 (for A-BG) or 9 (for all the other three BGs) g/L were performed. As for pNPG substrate, the range of cellobiose substrate concentration was chosen to show detectable activity at the lowest substrate concentration and saturation stage at high substrate concentration. However, in contrast to the pNPG substrate, when there was still some activity left at glucose concentration up to 36 g/L, most of the BG activity was lost at an inhibitor level of 9 g/L when cellobiose substrate was used. […]

[2] = substrate: O=[N+]([O-])c1ccc(O[C@@H]2O[C@H](CO)[C@@H](O)[C@H](O)[C@H]2O)cc1; experiment: BG kinetics, pNPG hydrolysis assay with glucose as competitive inhibitor, yEdQ885-BG; conditions: other: pNPG substrate, pH 5.0, 50° C.
Source text: as §1, §2, §3
BG activity assay using pNPG is one of the two commonly used standard assays to measure BG activity, which utilizes hydrolysis of p-nitrophenyl-β-D-glucopyranoside (pNPG) by BG into a yellow colored product, p-nitrophenol (pNP), that has a strong absorbance at 405 nm. One pNPG unit is defined as the amount of enzyme that produces 1 μmol of pNP per min. Briefly, to determine BG activity, 25 μL of diluted enzyme in 200 mM sodium acetate buffer (pH 5.0) was mixed with 25 μL of the same buffer and 25 μL of RO water (or glucose solution for the kinetic study) and the mixture was preincubated at 50° C. for 5 min. The reaction was initiated by adding 25 μL of 10 mM pNPG in 200 mM sodium acetate buffer (pH 5.0) and the mixture was incubated at 50° C. for 10 min. The reaction was then terminated by adding 100 μL of 0.25 M sodium carbonate, and the amount of pNP produced was determined by measuring absorbance at 405 nm using a predetermined calibration curve. […]
To determine the kinetic properties, a competitive inhibition mechanism was hypothesized as proposed in the literature (Chauve et al, 2010; Krogh et al, 2010). […] The turnover number, Kcat, can be calculated by Equation (2), where [Et] is the total amount of enzyme.
Conventionally, linearization methods can be used to determine the kinetic parameters based on Equation (1). […] Thus, Vmax, Km and Ki can be determined simultaneously from this fitting process, and Km/Ki can then be calculated. Kcat can be obtained by Equation (2) and Kcat/Km can be calculated accordingly. […]

[3] = substrate: OC[C@H]1O[C@@H](O[C@H]2[C@H](O)[C@@H](O)C(O)O[C@@H]2CO)[C@H](O)[C@@H](O)[C@@H]1O; experiment: BG kinetics, cellobiose hydrolysis assay (HPLC) with glucose as competitive inhibitor, yEdQ745-BG; conditions: other: cellobiose substrate, pH 4.8, 50° C.
Source text: (§5) Accordingly, in some embodiments, the unmodified form of the beta-glucosidase is a wild-type or a naturally occurring beta-glucosidase, such as, for example, a fungal beta-glucosidase. The full nucleic acid and amino acid sequence for numerous fungal beta-glucosidases are available. The amino acid sequence of A. niger beta-glucosidase is provided as SEQ ID NO:2. Thus, in some embodiments, the unmodified beta-glucosidase is from an Aspergillus species. In some embodiments, the unmodified beta-glucosidase is from a Trichoderma species.
as §1
(§6) The BG-expressing strains were subsequently used in corn mash and corn stover simultaneous saccharification and fermentation (SSF) studies using flask scale and pilot plant fermentations. A 12-gallon corn stover fermentation was performed at 40° C. in which the beta-glucosidase secreting yeast strain was co-inoculated with three other engineered yeast strains individually expressing endoglucanase II, CBH1, and CBHII. Surviving TR3 Saccharomyces cerevisiae yeast strains individually expressing BG, EGII, CBH1 or CBH2 were recovered by plating onto solid medium. A clonal population of BG-secreting yeast was isolated and the BG gene integration confirmed. This strain is referred to herein as yEdQ745 and comprises the wild-type BG gene. The BG sequence in the Tau3 integration cassette was used for subsequent mutagenesis experiments.
as §3
as §4, with “The mixture was incubated at 50° C. for 10 min, and the reaction was terminated by incubating the mixture at 99° C. for 5 min. Different methods are available to measure the glucose produced in the assays. For the kinetic study, HPLC was used.” left out

[4] = substrate: O=[N+]([O-])c1ccc(O[C@@H]2O[C@H](CO)[C@@H](O)[C@H](O)[C@H]2O)cc1; experiment: BG kinetics, pNPG hydrolysis assay with glucose as competitive inhibitor, yEdQ745-BG; conditions: other: pNPG substrate, pH 5.0, 50° C.
Source text: as §5, §1, §6, §3
BG activity assay using pNPG is one of the two commonly used standard assays to measure BG activity, which utilizes hydrolysis of p-nitrophenyl-β-D-glucopyranoside (pNPG) by BG into a yellow colored product, p-nitrophenol (pNP), that has a strong absorbance at 405 nm. One pNPG unit is defined as the amount of enzyme that produces 1 μmol of pNP per min. […] The reaction was then terminated by adding 100 μL of 0.25 M sodium carbonate, and the amount of pNP produced was determined by measuring absorbance at 405 nm using a predetermined calibration curve. […]

Row | Protein | Km [1] | Vmax [1] | kcat [1] | kcat/Km [1] | Km [2] | Vmax [2] | kcat [2] | kcat/Km [2] | Km [3] | Vmax [3] | kcat [3] | kcat/Km [3] | Km [4] | Vmax [4] | kcat [4] | kcat/Km [4]
1 | Aspergillus niger beta-glucosidase (CAB75696.1, SEQ ID NO:2) improved variant yEdQ885-BG (Aspergillus niger; Y363C/Y375F/Y610F) (protein, strain yEdQ885, BG acid/base mutant #8) DELAYSPPYYPSPWANGQGDWAQAYQRAVDIVSQMTLDEKVNLTTGTGWELELCVGQTGGVPRLGVPGMCLQDSPLGVRDSDYNSAFPAGMNVAATWDKNLAYLRGKAMGQEFSDKGADIQLGPAAGPLGRSPDGGRNWEGFSPDPALSGVLFAETIKGIQDAGVVATAKHYIAYEQEHFRQAPEAQGFGFNISESGSANLDDKTMHELYLWPFADAIRAGAGAVMCSYNQINNSYGCQNSYTLNKLLKAELGFQGFVMSDWAAHHAGVSGALAGLDMSMPGDVDYDSGTSYWGTNLTISVLNGTVPQWRVDDMAVRIMAAYYKVGRDRLWTPPNFSSWTRDECGYKYYYVSEGPFEKVNQYVNVQRNHSELIRRIGADSTVLLKNDGALPLTGKERLVALIGEDAGSNPYGANGCSDRGCDNGTLAMGWGSGTANFPYLVTPEQAISNEVLKHKNGVFTATDNWAIDQIEALAKTASVSLVFVNADSGEGYINVDGNLGDRRNLTLWRNGDNVIKAAASNCNNTIVVIHSVGPVLVNEWYDNPNVTAILWGGLPGQESGNSLADVLYGRVNPGAKSPFTWGKTREAYQDFLVTEPNNGNGAPQEDFVEGVFIDYRGFDKRNETPIYEFGYGLSYTTFNYSNLEVQVLSAPAYEPASGETEAAPTFGEVGNASDYLYPSGLQRITKFIYPWLNGTDLEASSGDASYGQDSSDYLPEGATDGSAQPILPAGGGPGGNPRLYDELIRVSVTIKNTGKVAGDEVPQLYVSLGGPNEPKIVLRQFERITLQPSEETKWSTTLTRRDLANWNVEKQDWEITSYPKMVFVGSSSRKLPLRASLPTVH | 1450 ± 260 µM | 11.6 µmol/min/mg | 23.1 s⁻¹ | 16000 M⁻¹ s⁻¹ | 640 ± 30 µM | 6.33 µmol/min/mg | 12.7 s⁻¹ | 19800 M⁻¹ s⁻¹ |  |  |  |  |  |  |  | 
2 | Aspergillus niger beta-glucosidase, wild type, yEdQ745-BG (CAB75696.1, SEQ ID NO:2) (Aspergillus niger) (protein, strain yEdQ745) DELAYSPPYYPSPWANGQGDWAQAYQRAVDIVSQMTLDEKVNLTTGTGWELELCVGQTGGVPRLGVPGMCLQDSPLGVRDSDYNSAFPAGMNVAATWDKNLAYLRGKAMGQEFSDKGADIQLGPAAGPLGRSPDGGRNWEGFSPDPALSGVLFAETIKGIQDAGVVATAKHYIAYEQEHFRQAPEAQGFGFNISESGSANLDDKTMHELYLWPFADAIRAGAGAVMCSYNQINNSYGCQNSYTLNKLLKAELGFQGFVMSDWAAHHAGVSGALAGLDMSMPGDVDYDSGTSYWGTNLTISVLNGTVPQWRVDDMAVRIMAAYYKVGRDRLWTPPNFSSWTRDEYGYKYYYVSEGPYEKVNQYVNVQRNHSELIRRIGADSTVLLKNDGALPLTGKERLVALIGEDAGSNPYGANGCSDRGCDNGTLAMGWGSGTANFPYLVTPEQAISNEVLKHKNGVFTATDNWAIDQIEALAKTASVSLVFVNADSGEGYINVDGNLGDRRNLTLWRNGDNVIKAAASNCNNTIVVIHSVGPVLVNEWYDNPNVTAILWGGLPGQESGNSLADVLYGRVNPGAKSPFTWGKTREAYQDYLVTEPNNGNGAPQEDFVEGVFIDYRGFDKRNETPIYEFGYGLSYTTFNYSNLEVQVLSAPAYEPASGETEAAPTFGEVGNASDYLYPSGLQRITKFIYPWLNGTDLEASSGDASYGQDSSDYLPEGATDGSAQPILPAGGGPGGNPRLYDELIRVSVTIKNTGKVAGDEVPQLYVSLGGPNEPKIVLRQFERITLQPSEETKWSTTLTRRDLANWNVEKQDWEITSYPKMVFVGSSSRKLPLRASLPTVH |  |  |  |  |  |  |  |  | 1450 ± 290 µM | 4.36 µmol/min/mg | 8.72 s⁻¹ | 6010 M⁻¹ s⁻¹ | 640 ± 60 µM | 4.17 µmol/min/mg | 8.34 s⁻¹ | 13000 M⁻¹ s⁻¹
